Data from article PMC2964679, “Characterization of exceptionally thermostable single-stranded DNA-binding proteins from Thermotoga maritima and Thermotoga neapolitana” (BMC Microbiology, 2010).

T1: TneSSB (Thermotoga neapolitana DSM 4359, UniProt D1M925 1-142)
T1 sequence: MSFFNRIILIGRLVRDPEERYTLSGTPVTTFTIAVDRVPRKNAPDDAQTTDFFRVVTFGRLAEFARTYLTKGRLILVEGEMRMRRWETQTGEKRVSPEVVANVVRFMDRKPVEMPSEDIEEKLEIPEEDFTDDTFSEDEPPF

T2: TmaSSB (Thermotoga maritima MSB8 (DSM 3106), UniProt Q9WZ73 1-141)
T2 sequence: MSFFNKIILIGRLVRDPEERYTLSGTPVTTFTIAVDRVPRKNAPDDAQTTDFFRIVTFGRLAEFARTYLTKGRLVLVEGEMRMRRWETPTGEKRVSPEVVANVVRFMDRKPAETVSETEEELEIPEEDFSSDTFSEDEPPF

B1: single-stranded DNA-binding protein from Thermotoga maritima (TmaSSB) (natural protein, UniProt Q9WZ73 1-141, looked up)
chain: T2 sequence
notes: ssb gene amplified with primers from the ATG start codon to the TGA stop codon, cloned between NdeI and HindIII of pET30Ek/LIC (pETSSBTma); No tag is mentioned; cloning between NdeI and HindIII with the gene's own stop codon probably leaves out the vector's tags (surmised); also called T. maritima SSB; source: E. coli BL21(DE3)pLysS, purified (heat treatment at 80°C, QAE-cellulose, …)
B2: (dT)120 (ssDNA)
DNA: TTTTTTTTTTTTTTTTTTTTTTTTTTTTTTTTTTTTTTTTTTTTTTTTTTTTTTTTTTTTTTTTTTTTTTTTTTTTTTTTTTTTTTTTTTTTTTTTTTTTTTTTTTTTTTTTTTTTTTTT
B3: single-stranded DNA-binding protein from Thermotoga neapolitana (TneSSB) (natural protein, UniProt D1M925 1-142, looked up)
chain: T1 sequence
notes: ssb gene amplified with primers from the ATG start codon to the TGA stop codon, cloned between NdeI and HindIII of pET30Ek/LIC (pETSSBTne); No tag is mentioned; cloning between NdeI and HindIII with the gene's own stop codon probably leaves out the vector's tags (surmised); also called T. neapolitana SSB; source: E. coli BL21(DE3)pLysS, purified (heat treatment at 80°C, QAE-cellulose, …)
B4: (dT)76 (titration) (ssDNA)
DNA: TTTTTTTTTTTTTTTTTTTTTTTTTTTTTTTTTTTTTTTTTTTTTTTTTTTTTTTTTTTTTTTTTTTTTTTTTTTT
B5: (dT)76 (ssDNA)
DNA: B4 DNA
B6: (dT)60 (ssDNA)
DNA: TTTTTTTTTTTTTTTTTTTTTTTTTTTTTTTTTTTTTTTTTTTTTTTTTTTTTTTTTTTT

Key:
[1] = biological target: the molecule itself; experiment: SEC; FPLC analytical gel filtration on a Superdex HR 75 column, calibrated with bovine albumin, ovalbumin, carbon anhydrase and cytochrome C; oligomeric state in solution
TneSSB [2] = biological target: T1, TneSSB; experiment: EMSA (agarose); 2 or 100 mM NaCl; two tetramers at high protein; 20 mM Tris-HCl pH 7.5, 1 mM EDTA, 2 or 100 mM NaCl, 25°C; EMSA 10 pmol oligo (1.5 pmol M13) with 10-200 pmol SSB in 10 µl, 2% agarose in TAE; titration 1 nM SSB with 0-0.8 nM (dT)76; details: protein: recombinant; tags: none stated (NdeI/HindIII in pET30Ek/LIC, start and stop codon in primers); chain copies: 4; label: 5'-fluorescein (EMSA); single strand
TmaSSB [3] = biological target: T2, TmaSSB; experiment: as above; details: protein: recombinant; tags: none stated (NdeI/HindIII in pET30Ek/LIC, start and stop codon in primers); chain copies: 4; label: 5'-fluorescein (EMSA); single strand
TneSSB [4] = biological target: T1, TneSSB; experiment: fluorescence titration (Trp quenching); 2 mM NaCl; cooperative affinity omega*K; site size 68 +/- 2 nt; quench 95%; 20 mM Tris-HCl pH 7.5, 1 mM EDTA, 2 or 100 mM NaCl, 25°C; EMSA 10 pmol oligo (1.5 pmol M13) with 10-200 pmol SSB in 10 µl, 2% agarose in TAE; titration 1 nM SSB with 0-0.8 nM (dT)76; details: protein: recombinant; tags: none stated (NdeI/HindIII in pET30Ek/LIC, start and stop codon in primers); chain copies: 4; single strand
TmaSSB [5] = biological target: T2, TmaSSB; experiment: as above; details: protein: recombinant; tags: none stated (NdeI/HindIII in pET30Ek/LIC, start and stop codon in primers); chain copies: 4; single strand
TneSSB [6] = biological target: T1, TneSSB; experiment: EMSA (agarose); 2 or 100 mM NaCl; one tetramer; 20 mM Tris-HCl pH 7.5, 1 mM EDTA, 2 or 100 mM NaCl, 25°C; EMSA 10 pmol oligo (1.5 pmol M13) with 10-200 pmol SSB in 10 µl, 2% agarose in TAE; titration 1 nM SSB with 0-0.8 nM (dT)76; details: protein: recombinant; tags: none stated (NdeI/HindIII in pET30Ek/LIC, start and stop codon in primers); chain copies: 4; label: 5'-fluorescein (EMSA); single strand
TmaSSB [7] = biological target: T2, TmaSSB; experiment: as above; details: protein: recombinant; tags: none stated (NdeI/HindIII in pET30Ek/LIC, start and stop codon in primers); chain copies: 4; label: 5'-fluorescein (EMSA); single strand

| Binder | binding result (TneSSB [6]) | binding result (TmaSSB [7]) | also measured |
| --- | --- | --- | --- |
| B1 |  |  | stoichiometry N [1]: 4 |
| B2 |  |  | binding result (TneSSB [2]): binds; binding result (TmaSSB [3]): binds |
| B3 |  |  | stoichiometry N [1]: 4 |
| B4 |  |  | binding result (TneSSB [4]): binds; binding result (TmaSSB [5]): binds |
| B5 | binds | binds |  |
| B6 | binds | binds |  |
| TTTTTTTTTTTTTTTTTTTTTTTTTTTTTTTTTTT (ssDNA) [(dT)35] | binds | binds |  |
